Assays:
male BALB/c mice = conditions: ADR 10.5 mg/kg IV, up to 6 weeks; cited from earlier work
[1] = tested on: male BALB/c mice treated with adriamycin (ADR); experiment: ADR-induced glomerular injury in BALB/c mice: kidney weight and mesangial morphometry (PAS staining); type: in vivo, mouse; conditions: for kidney weight/body weight ratio: sRAGE 100 μg per day once daily, vs. PBS-treated mice; for mesangial area / mesangial/glomerular area: sRAGE 100 μg per day, compared with PBS treatment, PAS staining
Method: (§1) Male BALB/c mice at the age of six weeks received one intravenous dose of adriamycin (ADR), 10.5 mg/kg. Immediately after injection of ADR, mice received once daily administration of murine soluble RAGE, the extracellular ligand binding domain of RAGE, 100 μg per day, beginning immediately at the time of ADR treatment, and continued until the day of sacrifice.
Dissected kidneys were fixed in buffered formalin (10%) overnight and then routinely processed for light microscopy. Fixed paraffin-embedded tissues were cut (3 μm thick) and mounted on slides coated with 3-aminopropyltriethoxy silane (Sigma) followed by incubation at 37° C. overnight. Light microscopic views after staining with periodic acid Schiff (PAS) were scanned into a computer and the quantification of areas of mesangial matrix and glomerulus was performed using a Zeiss microscope and image analysis system (MediaCybernetics). To calculate mesangial area, only nuclei-free regions were included. Forty glomeruli from each animal were selected at random on the stained sections (20 from the outer region and 20 from the inner region). Morphometry was performed by investigators blinded to the experimental protocol.
To address the concept that RAGE may be involved in the pathogenesis of ADR-mediated FSGS, a single injection of ADR, 10.5 mg/kg, to male BALB/c mice at age 6 weeks was administered. ADR-treated mice received once daily administration of murine soluble RAGE, the extracellular ligand binding domain of RAGE, 100 μg per day, beginning immediately at the time of ADR treatment, and continued until the day of sacrifice. Other ADR-treated mice received vehicle, PBS.

[2] = tested on: male BALB/c mice treated with adriamycin (ADR); experiment: ADR-induced albuminuria in BALB/c mice: 24 hr urine albumin/creatinine; type: in vivo, mouse; conditions: sRAGE 100 μg per day, mean±SE
Method: as §1
Twenty-four hour urine collection was obtained from each animal using metabolic cages. Urine albumin and creatinine were determined using Albuwell M and creatinine assays from Exocell (Philadelphia, Pa.) according to the manufacturer's instructions.
The key test of these concepts was the degree to which blockade of RAGE would suppress the development of albuminuria. Mice were placed in metabolic cages and 24 hr urine collected. Urine levels of albumin and creatinine were determined; results are reported as μg albumin/μg creatinine. […] At six weeks, the results were similarly striking.

| Molecule | mice that developed hematuria (male BALB/c mice) | mice that developed leukocyturia (male BALB/c mice) | kidney weight/body weight ratio ([1]; 2 weeks after ADR 10.5 mg/kg) | mesangial area ([1]; 2 weeks after ADR) | mesangial/glomerular area ([1]; 2 weeks after ADR) | kidney weight/body weight ratio ([1]; 6 weeks after ADR 10.5 mg/kg) | mesangial area ([1]; 6 weeks after ADR) | mesangial/glomerular area ([1]; 6 weeks after ADR) | urine albumin/creatinine ([2]; 2 weeks after ADR, p<0.05 vs. PBS-treated mice receiving ADR (809.55±365.85)) | urine albumin/creatinine ([2]; 6 weeks after ADR, p<0.01 vs PBS/ADR (1,362.96±987.97)) |
| --- | --- | --- | --- | --- | --- | --- | --- | --- | --- | --- |
| COc1cccc2c1C(=O)c1c(O)c3c(c(O)c1C2=O)C[C@@](O)(C(=O)CO)C[C@@H]3O[C@H]1C[C@H](N)[C@H](O)[C@H](C)O1 [ADR, adriamycin] | 35.7% | 53.6% |  |  |  |  |  |  |  |  |
| sRAGE: murine soluble RAGE, the extracellular ligand binding domain of RAGE (protein, UniProt Q62151 23-340, looked up, extracellular domain) extracellular domain: GQNITARIGEPLVLSCKGAPKKPPQQLEWKLNTGRTEAWKVLSPQGGPWDSVARILPNGSLLLPATGIVDEGTFRCRATNRRGKEVKSNYRVRVYQIPGKPEIVDPASELTASVPNKVGTCVSEGSYPAGTLSWHLDGKLLIPDGKETLVKEETRRHPETGLFTLRSELTVIPTQGGTHPTFSCSFSLGLPRRRPLNTAPIQLRVREPGPPEGIQLLVEPEGGIVAPGGTVTLTCAISAQPPPQVHWIKDGAPLPLAPSPVLLLPEVGHEDEGTYSCVATHPSHGPQESPPVSIRVTETGDEGPAEGSVGESGLGTLA |  |  | significantly decreased | significantly decreased | significantly decreased | significantly decreased | significantly decreased | significantly decreased | 191.08±49.93 μg albumin/μg creatinine | 249.76±283.19 μg albumin/μg creatinine |

Reference: patent US20070014791A1, “Rage-related methods and copositions for treating glomerular injury” (priority 2003, published 2007)
